T1: IL-19 (human, UniProt Q9UHD0 25-177)
T1 construct: also called Interleukin-19; IL-19a
T1 sequence: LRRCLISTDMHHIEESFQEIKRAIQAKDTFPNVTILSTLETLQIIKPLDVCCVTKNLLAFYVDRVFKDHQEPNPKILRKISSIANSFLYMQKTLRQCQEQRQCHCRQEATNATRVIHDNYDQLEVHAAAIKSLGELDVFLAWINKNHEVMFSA

T2: IL-22 (Homo sapiens (Human), UniProt Q9GZX6 35-179, limits assumed)
T2 construct: also called IL-22 wt
T2 sequence: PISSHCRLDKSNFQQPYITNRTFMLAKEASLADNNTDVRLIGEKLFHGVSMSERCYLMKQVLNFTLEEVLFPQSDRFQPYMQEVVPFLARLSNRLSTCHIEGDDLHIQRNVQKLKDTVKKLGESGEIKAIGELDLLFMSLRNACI

T3: IL-20R1 triple mutant M3 (UniProt Q9UHF4 29-245)
T3 construct: range 29-245; also called IL-20R1 site 3 mutant
T3 sequence (looked up): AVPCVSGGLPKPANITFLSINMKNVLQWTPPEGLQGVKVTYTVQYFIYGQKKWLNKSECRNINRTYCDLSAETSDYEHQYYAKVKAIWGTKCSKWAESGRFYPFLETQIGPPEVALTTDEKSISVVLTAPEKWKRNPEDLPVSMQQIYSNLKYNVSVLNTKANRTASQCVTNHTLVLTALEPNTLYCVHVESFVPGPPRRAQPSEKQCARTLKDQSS

B1: IL22R1ddq/IL20R2-FCkh (Fc fusion)
chain 1: AHAPEDPSDLLQHVKFQSSNFENILTWDSGPEGTPDTVYSIEYKTYGERDWVAKKGCQRITRKSCDLTVETGDLQELYYARVTAVSAGGRSATKMTDRFSSLQHTTLKPPDVTCISKVRSIQMIVHPTPTPIRAGDGHRLTLEDIFHDLFYHLELQVNRTYQMHLGGKQREYEFFGLTPDTEFLGTIMICVPTWAKESAPYMCRVKTLPDRTWTYSGSGGGGPSVFIFPPKIKDVLMISLSPIVTCVVVDVSEDDPDVQISWFVNNVEVHTAQTQTHREDYNSTLRVVSALPIQHQDWMSGKEFKCKVNNKDLPAPIERTISKPKGSVRAPQVYVLPPPCEEMTKKQVTLYCMVTDFMPEDIYVEWTNNGKTELNYKNTEPVLDSDGSYFMYSKLRVEKKNWVERNSYSCSVVHEGLHNHHTTKSFSRTPGKGLEASGGLNDIFEAQKIEWHEGTGHHHHHH
chain 2: DEVAILPAPQQLSVLSTNMKHLLMWSPVIAPGETVYYSVEYQGEYESLYTSHIWIPSSWCSLTEGPECDVTDDITATVPYNLRVRATLGSQTSAWSILKHPFNRQSTILTRPGMEITKDGFHLVIELEDLGPQFEFLVAYWRREPGAEEHVKMVRSGGIPVHLETMEPGAAYCVKAQTFVKAIGRYSAFSQTECVEVQGEAGSGGGGPSVFIFPPKIKDVLMISLSPIVTCVVVDVSEDDPDVQISWFVNNVEVHTAQTQTHREDYNSTLRVVSALPIQHQDWMSGKEFKCKVNNKDLPAPIERTISKPKGSVRAPQVYVLPPPEEEMTKKQVTLTCMVTDFMPEDIYVEWTNNGKTELNYKNTEPVLDSDGSYFMTSKLRVEKKNWVERNSYSCSVVHEGLHNHHTTKSFGGCGTPASGGLNDIFEAQKIEWHE
notes: also called IL-22R1/IL-20R2-FCkh; soluble IL-22R1/IL-20R2 receptor heterodimer
B2: IL-20 (ligand)
chain: MLKTLNLGSCVIATNLQEIRNGFSEIRGSVQAKDGNIDIRILRRTESLQDTKPANRCCLLRHLLRLYLDRVFKNYQTPDHYTLRKISSLANSFLTIKKDLRLCHAHMTCHCGEEAMKKYSQILSHFEKLEPQAAVVKALGELDILLQWMEETE
notes: The crystal model holds residues 24-176; also called Interleukin-20; IL-20b

What was measured:
IL-19 = target: T1, IL-19; assay: SPR, IL-19 as analyte over IL22R1ddq/IL20R2-FCkh as ligand
IL-22 = target: T2, IL-22; assay: SPR, IL-22 as analyte over IL22R1ddq/IL20R2-FCkh as ligand
IL-20 = target: B2; assay: SPR, IL-20 as analyte over IL22R1ddq/IL20R2-FCkh as ligand
IL22R1ddq/IL20R2-FCkh = target: B1; assay: SPR with the IL-22R1/IL-20R2-FCkh heterodimer
IL-20R1 triple mutant M3 = target: T3, IL-20R1 triple mutant M3; assay: SPR, IL-20 + M3 co-injected over an IL-20R2 chip
Experimental: FIGS. 9A-9D show the IL-20 site 3 interface is essential and distinct from other complexes. FIG. 9A is a ribbon diagram showing the site 3 interface between IL-20R1 and IL-20R2. FIG. 9B is a graph showing the importance of the site 3 interface in ternary complex formation. SPR sensograms obtained by injecting cytokines (IL-19 or IL-20, at 250 nM) and/or receptors (IL-20R1 or M3, at 425 nM), as labeled on the figure, over an IL-20R2 coupled biacore chip. Injection of IL-20+IL-20R1 results in a large response consistent with ternary complex formation. However, injection of IL-20+M3, an IL-20R1 site 3 mutant with S190^IL-20R1, W194^IL-20R1, and W207^IL-20R1 mutated to alanine drastically reduces binding due to disruption of ternary complex formation. Similar results are observed for complex formation by IL-19. FIG. 9C is a ribbon diagram of the superposition of the D2 domains of GHR site 1, IL-6R, and IL-20R1. The positions of the D2 domains of GHR site2, GP130, and IL-20R2 are shown, along with a schematic of the differences in their orientations. FIG. 9D is a ribbon diagram showing the putative model of the IL-22/IL-22R1/IL-10R2 complex based on the IL-20 ternary complex structure. […]

Row | Binder | Kd (IL-19) | Kd (IL-22) | kon (IL-22) | Kd (IL-20) | fold difference in binding affinity against IL-19 (IL22R1ddq/IL20R2-FCkh) | binding result (IL-20R1 triple mutant M3)
1 | B1 | 101 nM | 5.15 nM | ~957000 M⁻¹ s⁻¹ | 0.99 nM |  | 
2 | B2 |  |  |  |  | 100 fold | binds

Reference: patent US20150203556A1 (UAB RESEARCH FOUNDATION, published 2015)
